Numbered stars: 1 amine (or outer) side, 2 acyl side, 3 side chain; on linkers, the order of the positions; unused ones are H or OH. Bridge positions count the residues as written; N and C are the ends. Side chains are listed from the residue outwards. Ends that are not written are not given here. * marks the point of attachment. C20 diacid = O=C(O)CCCCCCCCCCCCCCCCCCC(=O)*; γGlu = O=C(O)[C@H](CCC(=O)[*:2])N[*:1]

B1: N^ε1-[(4S)-4-carboxy-4-(19-carboxynonadecanoylamino)butanoyl]-[Ala14,Arg17,Pro21,Pro27,Pro34]-h-amylin (peptide)
peptide: K([γGlu-C20 diacid])CNTATCATQRLAAFLRHSSPNFGAIPSSTNVGPNTY-NH2
modifications: disulfide 2-7; N-terminus assumed
SMILES: CC[C@H](C)[C@H](NC(=O)[C@H](C)NC(=O)CNC(=O)[C@H](Cc1ccccc1)NC(=O)[C@H](CC(N)=O)NC(=O)[C@@H]1CCCN1C(=O)[C@H](CO)NC(=O)[C@H](CO)NC(=O)[C@H](Cc1c[nH]cn1)NC(=O)[C@H](CCCNC(=N)N)NC(=O)[C@H](CC(C)C)NC(=O)[C@H](Cc1ccccc1)NC(=O)[C@H](C)NC(=O)[C@H](C)NC(=O)[C@H](CC(C)C)NC(=O)[C@H](CCCNC(=N)N)NC(=O)[C@H](CCC(N)=O)NC(=O)[C@@H](NC(=O)[C@H](C)NC(=O)[C@@H]1CSSC[C@H](NC(=O)[C@@H](N)CCCCNC(=O)CC[C@H](NC(=O)CCCCCCCCCCCCCCCCCCC(=O)O)C(=O)O)C(=O)N[C@@H](CC(N)=O)C(=O)N[C@@H]([C@@H](C)O)C(=O)N[C@@H](C)C(=O)N[C@@H]([C@@H](C)O)C(=O)N1)[C@@H](C)O)C(=O)N1CCC[C@H]1C(=O)N[C@@H](CO)C(=O)N[C@@H](CO)C(=O)N[C@H](C(=O)N[C@@H](CC(N)=O)C(=O)N[C@H](C(=O)NCC(=O)N1CCC[C@H]1C(=O)N[C@@H](CC(N)=O)C(=O)N[C@H](C(=O)N[C@@H](Cc1ccc(O)cc1)C(N)=O)[C@@H](C)O)C(C)C)[C@@H](C)O
notes: also called 14A, 17R, 21P, 27P, 34P
B2: N^ε1-[(4S)-4-carboxy-4-(19-carboxynonadecanoylamino)butanoyl]-[Arg17,Pro21,Pro27,His34]-h-amylin (peptide)
peptide: K([γGlu-C20 diacid])CNTATCATQRLANFLRHSSPNFGAIPSSTNVGHNTY-NH2
modifications: disulfide 2-7; N-terminus assumed
SMILES: CC[C@H](C)[C@H](NC(=O)[C@H](C)NC(=O)CNC(=O)[C@H](Cc1ccccc1)NC(=O)[C@H](CC(N)=O)NC(=O)[C@@H]1CCCN1C(=O)[C@H](CO)NC(=O)[C@H](CO)NC(=O)[C@H](Cc1c[nH]cn1)NC(=O)[C@H](CCCNC(=N)N)NC(=O)[C@H](CC(C)C)NC(=O)[C@H](Cc1ccccc1)NC(=O)[C@H](CC(N)=O)NC(=O)[C@H](C)NC(=O)[C@H](CC(C)C)NC(=O)[C@H](CCCNC(=N)N)NC(=O)[C@H](CCC(N)=O)NC(=O)[C@@H](NC(=O)[C@H](C)NC(=O)[C@@H]1CSSC[C@H](NC(=O)[C@@H](N)CCCCNC(=O)CC[C@H](NC(=O)CCCCCCCCCCCCCCCCCCC(=O)O)C(=O)O)C(=O)N[C@@H](CC(N)=O)C(=O)N[C@@H]([C@@H](C)O)C(=O)N[C@@H](C)C(=O)N[C@@H]([C@@H](C)O)C(=O)N1)[C@@H](C)O)C(=O)N1CCC[C@H]1C(=O)N[C@@H](CO)C(=O)N[C@@H](CO)C(=O)N[C@H](C(=O)N[C@@H](CC(N)=O)C(=O)N[C@H](C(=O)NCC(=O)N[C@@H](Cc1c[nH]cn1)C(=O)N[C@@H](CC(N)=O)C(=O)N[C@H](C(=O)N[C@@H](Cc1ccc(O)cc1)C(N)=O)[C@@H](C)O)C(C)C)[C@@H](C)O
notes: also called 17R, 21P, 27P, 34H
B3: N^ε1-[(4S)-4-carboxy-4-(19-carboxynonadecanoylamino)butanoyl]-[Arg14,Arg17,Pro21,Pro27,Pro34]-h-amylin (peptide)
peptide: K([γGlu-C20 diacid])CNTATCATQRLARFLRHSSPNFGAIPSSTNVGPNTY-NH2
modifications: disulfide 2-7; N-terminus assumed
SMILES: CC[C@H](C)[C@H](NC(=O)[C@H](C)NC(=O)CNC(=O)[C@H](Cc1ccccc1)NC(=O)[C@H](CC(N)=O)NC(=O)[C@@H]1CCCN1C(=O)[C@H](CO)NC(=O)[C@H](CO)NC(=O)[C@H](Cc1c[nH]cn1)NC(=O)[C@H](CCCNC(=N)N)NC(=O)[C@H](CC(C)C)NC(=O)[C@H](Cc1ccccc1)NC(=O)[C@H](CCCNC(=N)N)NC(=O)[C@H](C)NC(=O)[C@H](CC(C)C)NC(=O)[C@H](CCCNC(=N)N)NC(=O)[C@H](CCC(N)=O)NC(=O)[C@@H](NC(=O)[C@H](C)NC(=O)[C@@H]1CSSC[C@H](NC(=O)[C@@H](N)CCCCNC(=O)CC[C@H](NC(=O)CCCCCCCCCCCCCCCCCCC(=O)O)C(=O)O)C(=O)N[C@@H](CC(N)=O)C(=O)N[C@@H]([C@@H](C)O)C(=O)N[C@@H](C)C(=O)N[C@@H]([C@@H](C)O)C(=O)N1)[C@@H](C)O)C(=O)N1CCC[C@H]1C(=O)N[C@@H](CO)C(=O)N[C@@H](CO)C(=O)N[C@H](C(=O)N[C@@H](CC(N)=O)C(=O)N[C@H](C(=O)NCC(=O)N1CCC[C@H]1C(=O)N[C@@H](CC(N)=O)C(=O)N[C@H](C(=O)N[C@@H](Cc1ccc(O)cc1)C(N)=O)[C@@H](C)O)C(C)C)[C@@H](C)O
notes: also called 14R, 17R, 21P, 27P, 34P
B4: N^ε1-[(4S)-4-carboxy-4-(19-carboxynonadecanoylamino)butanoyl]-[Arg17,Pro21,Pro27,His35]-h-amylin (peptide)
peptide: K([γGlu-C20 diacid])CNTATCATQRLANFLRHSSPNFGAIPSSTNVGSHTY-NH2
modifications: disulfide 2-7; N-terminus assumed
SMILES: CC[C@H](C)[C@H](NC(=O)[C@H](C)NC(=O)CNC(=O)[C@H](Cc1ccccc1)NC(=O)[C@H](CC(N)=O)NC(=O)[C@@H]1CCCN1C(=O)[C@H](CO)NC(=O)[C@H](CO)NC(=O)[C@H](Cc1c[nH]cn1)NC(=O)[C@H](CCCNC(=N)N)NC(=O)[C@H](CC(C)C)NC(=O)[C@H](Cc1ccccc1)NC(=O)[C@H](CC(N)=O)NC(=O)[C@H](C)NC(=O)[C@H](CC(C)C)NC(=O)[C@H](CCCNC(=N)N)NC(=O)[C@H](CCC(N)=O)NC(=O)[C@@H](NC(=O)[C@H](C)NC(=O)[C@@H]1CSSC[C@H](NC(=O)[C@@H](N)CCCCNC(=O)CC[C@H](NC(=O)CCCCCCCCCCCCCCCCCCC(=O)O)C(=O)O)C(=O)N[C@@H](CC(N)=O)C(=O)N[C@@H]([C@@H](C)O)C(=O)N[C@@H](C)C(=O)N[C@@H]([C@@H](C)O)C(=O)N1)[C@@H](C)O)C(=O)N1CCC[C@H]1C(=O)N[C@@H](CO)C(=O)N[C@@H](CO)C(=O)N[C@H](C(=O)N[C@@H](CC(N)=O)C(=O)N[C@H](C(=O)NCC(=O)N[C@@H](CO)C(=O)N[C@@H](Cc1c[nH]cn1)C(=O)N[C@H](C(=O)N[C@@H](Cc1ccc(O)cc1)C(N)=O)[C@@H](C)O)C(C)C)[C@@H](C)O
notes: also called 17R, 21P, 27P, 35H
B5: N^ε1-[(4S)-4-carboxy-4-(19-carboxynonadecanoylamino)butanoyl]-[Arg17,Pro21,Pro27,Arg34]-h-amylin (peptide)
peptide: K([γGlu-C20 diacid])CNTATCATQRLANFLRHSSPNFGAIPSSTNVGRNTY-NH2
modifications: disulfide 2-7; N-terminus assumed
SMILES: CC[C@H](C)[C@H](NC(=O)[C@H](C)NC(=O)CNC(=O)[C@H](Cc1ccccc1)NC(=O)[C@H](CC(N)=O)NC(=O)[C@@H]1CCCN1C(=O)[C@H](CO)NC(=O)[C@H](CO)NC(=O)[C@H](Cc1c[nH]cn1)NC(=O)[C@H](CCCNC(=N)N)NC(=O)[C@H](CC(C)C)NC(=O)[C@H](Cc1ccccc1)NC(=O)[C@H](CC(N)=O)NC(=O)[C@H](C)NC(=O)[C@H](CC(C)C)NC(=O)[C@H](CCCNC(=N)N)NC(=O)[C@H](CCC(N)=O)NC(=O)[C@@H](NC(=O)[C@H](C)NC(=O)[C@@H]1CSSC[C@H](NC(=O)[C@@H](N)CCCCNC(=O)CC[C@H](NC(=O)CCCCCCCCCCCCCCCCCCC(=O)O)C(=O)O)C(=O)N[C@@H](CC(N)=O)C(=O)N[C@@H]([C@@H](C)O)C(=O)N[C@@H](C)C(=O)N[C@@H]([C@@H](C)O)C(=O)N1)[C@@H](C)O)C(=O)N1CCC[C@H]1C(=O)N[C@@H](CO)C(=O)N[C@@H](CO)C(=O)N[C@H](C(=O)N[C@@H](CC(N)=O)C(=O)N[C@H](C(=O)NCC(=O)N[C@@H](CCCNC(=N)N)C(=O)N[C@@H](CC(N)=O)C(=O)N[C@H](C(=O)N[C@@H](Cc1ccc(O)cc1)C(N)=O)[C@@H](C)O)C(C)C)[C@@H](C)O
notes: also called 17R, 21P, 27P, 34R

The assay concerns the target T1, human amylin receptor (human, UniProt P30988 25-474; O60896 24-148, limits assumed).
T1 construct: whole, on cells; Calcitonin receptor plus RAMP-3 gives the amylin 3(a) receptor; membranes of Amylin 3(a)/CRE-luc cells were used; also called hAmylin-R; hAmylinR
T1 sequence (looked up) 1: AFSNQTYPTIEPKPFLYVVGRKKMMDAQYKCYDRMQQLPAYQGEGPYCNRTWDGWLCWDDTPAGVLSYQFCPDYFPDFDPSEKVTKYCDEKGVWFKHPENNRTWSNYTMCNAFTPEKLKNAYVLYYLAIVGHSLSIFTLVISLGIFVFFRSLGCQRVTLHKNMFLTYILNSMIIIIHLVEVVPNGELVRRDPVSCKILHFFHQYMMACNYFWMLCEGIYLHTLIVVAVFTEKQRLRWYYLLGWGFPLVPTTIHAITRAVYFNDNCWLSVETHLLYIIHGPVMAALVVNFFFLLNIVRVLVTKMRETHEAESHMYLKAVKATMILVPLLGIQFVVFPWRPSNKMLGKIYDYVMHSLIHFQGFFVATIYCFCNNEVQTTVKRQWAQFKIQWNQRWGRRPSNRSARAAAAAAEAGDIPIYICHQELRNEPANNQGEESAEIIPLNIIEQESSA
T1 sequence (looked up) 2: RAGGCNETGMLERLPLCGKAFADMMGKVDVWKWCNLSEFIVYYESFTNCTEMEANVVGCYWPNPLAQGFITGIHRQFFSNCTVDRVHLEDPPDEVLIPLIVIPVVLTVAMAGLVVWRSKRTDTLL
Briefly: SPA competition binding, displacement of 125I-rat amylin from membranes with human amylin 3(a) receptor (Assay V). The gist of the method: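 SPA beads with BHK Amylin 3(a)/CRE-luc cell membranes (35 ng/μL final) in 50 mM Hepes pH 7.4, 1 mM CaCl2, 5 mM MgCl₂, 0.1% OA, 0.02% Tween20.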
In general terms: In a radioligand displacement assay an active substance lowers the binding of a labelled ligand.
The IC50 is the concentration that inhibits the measured activity by half. Read a high IC50 as weaker potency in that assay. As to B1, the IC50 was determined as 0.148 nM.
In the case of B2, the concentration for half-maximal inhibition (IC50) is 0.428 nM.
The result for B3 reads 0.649 nM; that for B4, 0.695 nM.
The molecule B5 gave an IC50 of 0.79 nM.

The values above are taken from patent publication US20140087995A1 (published 2014).
